Data on 16 molecules can be found in patent publication US20110039770A1, “INHIBITORS OF PROTEIN KINASE C ISOFORMS AND USES THEREOF” (PHARMAGAP INC., priority 2005, published 2011).

Where no end group is shown, it is not given here.

In assay [1] the target is PKC-βI (purified isoform) (Homo sapiens (Human)), P05771. The assay is described as follows: competitive ELISA, coated purified PKC-βI, vs anti-PKC βI (SC-209); PRE 50 µM. Conditions: remark: other sources report otherwise.
Assay [2] has the same target. The assay is described as follows: competitive ELISA, coated purified PKC-βI, vs anti-PKC βI (SC-209); PRE 200 µM. The note with it: remark: other sources report otherwise.
Assay [3] shares this target. Put plainly: competitive ELISA, coated purified PKC-βI, vs anti-PKC βI (SC-209); PRE 100 µM. Conditions: remark: other sources report otherwise. For orientation: In an ELISA, binding on a coated surface is turned into a signal by an enzyme label.
Assay [4] concerns the target PKC-ζ, purified isoform (UniProt Q05513). The assay is described as follows: competition ELISA on coated purified PKC-ζ vs anti-PKC ζ antibody; PRE 100 µM.
Assay [5] has the same target. The assay is described as follows: competition ELISA on coated purified PKC-ζ vs anti-PKC ζ antibody; PRE 50 µM.
For assay [6] the target is unchanged. The assay is described as follows: competition ELISA on coated purified PKC-ζ vs anti-PKC ζ antibody; PRE 200 µM.
Assay [7] has as its target PKC-δ, purified isoform, Q05655. Put plainly: cell-based or functional assay.
Assay [8] addresses PKC-ζ, purified isoform, Q05513. Put plainly: cell-based or functional assay.
Assay [9] addresses PKC-β (endogenous, IMR-32 lysate) (human) (UniProt P05771). Put plainly: WB competition Protocol A, IMR-32 lysate, vs anti-PKC-β Ab; 300 µg peptide.
Assay [10] shares this target. The assay is described as follows: WB competition Protocol A, IMR-32 lysate, vs anti-PKC-β Ab; 75 µg peptide.
The target is the same in assay [11]. The assay is described as follows: WB competition Protocol B, IMR-32 extract, vs anti-PKC-β Ab; 200 µg peptide.
For assay [12] the target is unchanged. Put plainly: WB competition Protocol B, IMR-32 extract, vs anti-PKC-β Ab; 100 µg peptide.
The target is the same in assay [13]. Put plainly: WB competition Protocol A, IMR-32 lysate, vs anti-PKC-β Ab; 600 µg peptide.
The target is the same in assay [14]. Put plainly: WB competition Protocol B, IMR-32 extract, vs anti-PKC-β Ab; 300 µg peptide.
Assay [15] deals with PKC-βI (purified isoform) (Homo sapiens (Human)) (UniProt P05771). Put plainly: competitive ELISA, coated purified PKC-βI, vs anti-PKC βI (SC-209); PRE 100 µM.
The target is the same in assay [16]. Put plainly: competitive ELISA, coated purified PKC-βI, vs anti-PKC βI (SC-209); PRE 50 µM.
The target is the same in assay [17]. Put plainly: competitive ELISA, coated purified PKC-βI, vs anti-PKC βI (SC-209); PRE 200 µM.
In another assay the target is PKC-δ, Q05655. The assay is described as follows: cell-based or functional assay.
Chain of PKC-δ, Q05655 (Q05655 whole entry, stated change not applied): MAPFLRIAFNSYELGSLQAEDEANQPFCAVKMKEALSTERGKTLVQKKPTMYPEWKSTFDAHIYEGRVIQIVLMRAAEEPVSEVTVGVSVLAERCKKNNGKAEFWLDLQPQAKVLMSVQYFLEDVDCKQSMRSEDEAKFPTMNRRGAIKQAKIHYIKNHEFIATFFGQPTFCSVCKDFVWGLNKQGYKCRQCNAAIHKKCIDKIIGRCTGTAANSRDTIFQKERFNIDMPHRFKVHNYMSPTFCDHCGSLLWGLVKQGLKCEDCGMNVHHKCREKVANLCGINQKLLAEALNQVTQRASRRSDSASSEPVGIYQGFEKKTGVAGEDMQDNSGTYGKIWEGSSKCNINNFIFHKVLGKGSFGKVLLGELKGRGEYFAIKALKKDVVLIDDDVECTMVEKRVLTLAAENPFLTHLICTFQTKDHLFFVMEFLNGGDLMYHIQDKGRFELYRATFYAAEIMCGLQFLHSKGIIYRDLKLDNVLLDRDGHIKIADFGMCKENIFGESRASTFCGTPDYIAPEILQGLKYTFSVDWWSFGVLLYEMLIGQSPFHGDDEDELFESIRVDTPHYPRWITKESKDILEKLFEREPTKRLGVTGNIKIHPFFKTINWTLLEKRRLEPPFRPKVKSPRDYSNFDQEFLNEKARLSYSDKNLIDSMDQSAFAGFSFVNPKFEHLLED

Chain of PKC-β (endogenous, IMR-32 lysate) (human) (P05771 2-671): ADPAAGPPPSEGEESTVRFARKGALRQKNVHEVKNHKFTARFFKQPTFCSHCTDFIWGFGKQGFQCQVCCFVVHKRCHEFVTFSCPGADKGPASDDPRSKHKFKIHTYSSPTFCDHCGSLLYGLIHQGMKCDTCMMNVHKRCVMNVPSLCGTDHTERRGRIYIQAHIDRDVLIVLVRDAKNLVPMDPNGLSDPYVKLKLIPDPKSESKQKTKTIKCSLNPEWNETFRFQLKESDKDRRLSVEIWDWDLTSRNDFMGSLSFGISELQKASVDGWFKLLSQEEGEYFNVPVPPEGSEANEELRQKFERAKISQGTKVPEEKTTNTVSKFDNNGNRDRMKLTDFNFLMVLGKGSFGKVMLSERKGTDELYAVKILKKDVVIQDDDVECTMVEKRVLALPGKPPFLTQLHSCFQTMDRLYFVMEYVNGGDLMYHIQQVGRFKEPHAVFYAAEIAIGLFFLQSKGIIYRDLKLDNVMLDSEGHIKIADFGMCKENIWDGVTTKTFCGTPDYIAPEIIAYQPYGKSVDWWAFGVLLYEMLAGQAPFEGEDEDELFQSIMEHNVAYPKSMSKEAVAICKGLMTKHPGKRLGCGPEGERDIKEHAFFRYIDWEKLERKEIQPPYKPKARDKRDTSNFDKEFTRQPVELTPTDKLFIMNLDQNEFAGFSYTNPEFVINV
Chain of PKC-βI (purified isoform) (Homo sapiens (Human)), P05771 (P05771 2-671 limits assumed): as the sequence (P05771 2-671) above
Chain of PKC-βI (purified isoform) (Homo sapiens (Human)) (P05771 2-671 limits assumed): as the sequence (P05771 2-671) above
Chain of PKC-ζ, purified isoform (Q05513 whole entry, canonical isoform): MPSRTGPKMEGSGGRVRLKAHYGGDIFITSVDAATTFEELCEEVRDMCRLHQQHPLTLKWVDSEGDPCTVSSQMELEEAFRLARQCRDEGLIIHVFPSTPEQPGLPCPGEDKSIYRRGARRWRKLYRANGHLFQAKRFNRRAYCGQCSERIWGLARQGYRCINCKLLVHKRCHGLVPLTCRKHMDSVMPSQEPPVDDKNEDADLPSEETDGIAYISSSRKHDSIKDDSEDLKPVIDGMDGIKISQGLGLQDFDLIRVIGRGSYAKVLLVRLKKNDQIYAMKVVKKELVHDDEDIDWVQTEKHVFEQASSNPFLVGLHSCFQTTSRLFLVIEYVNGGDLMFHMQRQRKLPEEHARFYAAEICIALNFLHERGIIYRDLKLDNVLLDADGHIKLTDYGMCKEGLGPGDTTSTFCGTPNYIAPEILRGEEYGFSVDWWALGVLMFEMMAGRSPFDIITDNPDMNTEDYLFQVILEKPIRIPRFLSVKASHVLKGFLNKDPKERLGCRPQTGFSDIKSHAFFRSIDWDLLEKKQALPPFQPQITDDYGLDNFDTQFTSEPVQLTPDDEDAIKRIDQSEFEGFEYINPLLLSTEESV
Chain of PKC-ζ, purified isoform, Q05513 (Q05513 whole entry, canonical isoform): as above
Chain of PKC-δ, purified isoform, Q05655 (Q05655 whole entry, stated change not applied, canonical isoform): as the sequence (Q05655 whole entry, stated change not applied) above

B1: PRE 8 (peptide)
peptide: ILEDKGGDAQNLIGISI
As to B1, the relative binding capacity (100-%n, DMSO subtracted) in assay [1], in assay [2] and in [3] was 0% in each case.

B2: PRE 6 (peptide)
peptide: Ac-KDANQLIGISI-NH2
On to B2, for which the relative binding capacity came out at 0% with PKC-ζ, purified isoform [4]; 0% with PKC-ζ, purified isoform [5]; 0% with PKC-ζ, purified isoform [6].

B3: PRE 11 (peptide)
peptide: Ac-RDAQNLIGISI-NH2
In the case of B3, the relative binding capacity with PKC-ζ, purified isoform [4] came out at 0%; in the assay with PKC-ζ, purified isoform [5], 0%; with PKC-ζ, purified isoform [6], 0%.

B4: compound PKI 3 (peptide)
peptide: FRRK(adenine PNA)FRL
In assay [7], B4 registered a % Inhibition of PKC activity at 150 µM of 32%, a % Inhibition of PKC activity at 300 µM of 41% and a % Inhibition of PKC activity at 600 µM of 70%. In [8], this molecule registered a % Inhibition of PKC activity at 150 µM of 37%, a % Inhibition of PKC activity at 300 µM of 40% and a % Inhibition of PKC activity at 600 µM of 56%.

B5: PRE 1 (peptide)
peptide: RRKKGGKDFVVKR
In assay [9], B5 registered a Band Intensity of 0.528, an Inhibition (%) of 54.5% and a Relative Intensity (%) of 45.5%. In assay [10], the Band Intensity came out at 0.825, the Inhibition (%) is 28.9% and the Relative Intensity (%) was found to be 71.1%.

B6: PRE 3 (peptide)
peptide: Ac-AKGIQEVKGGDAQNLIGISI-NH2
Regarding B6, the Band Intensity in [11] was determined as 0; in assay [12], 0; in [13] it was 1.85; in assay [9], 1.9; in assay [14], 0; in assay [10], 1.9. In addition, the Inhibition (%) turned out to be 100% in assay [11]; 100% in assay [12]; 0% in assay [13]; 0% in [9]; 100% in assay [14]; 0% in assay [10]. The Relative Intensity (%) in assay [11] came to 0%; in assay [12] it was 0%; in assay [13], 99.6%; in assay [9], 102%; in assay [14], 0%; in assay [10], 102%. Moreover, the relative binding capacity with PKC-ζ, purified isoform [4] turned out to be 23.9%; with PKC-ζ, purified isoform [5] it was 14%; with PKC-ζ, purified isoform [6], 29.1%.

B7: PRE 5 (peptide)
peptide: Ac-AKGIQEVKGGKDAQNLIGISI-NH2
As for B7, the relative binding capacity was 0% in the assay with PKC-ζ, purified isoform [4]; 0% with PKC-ζ, purified isoform [5]; 0% with PKC-ζ, purified isoform [6].

B8: PRE 4 (peptide)
peptide: Ac-KDAQNLIGISI-NH2
As to B8, the relative binding capacity in the assay with PKC-ζ, purified isoform [4] stood at 0%; with PKC-ζ, purified isoform [5] it was 0%; with PKC-ζ, purified isoform [6], 5.85%.

B9: PRE 12 (peptide)
peptide: Ac-KDAQNLI-NH2
As for B9, the relative binding capacity with PKC-ζ, purified isoform [4] was determined as 8.77%; with PKC-ζ, purified isoform [5], 4.2%; with PKC-ζ, purified isoform [6], 0.33%.

B10: PRE 7 (peptide)
peptide: Ac-ISIGILQNADK-NH2
As for B10, the relative binding capacity (100-%n, DMSO subtracted) in assay [15] amounted to 0%; in assay [16] it was 2.1%; in [17] it was 0%. The relative binding capacity with PKC-ζ, purified isoform [4] was determined as 0%; with PKC-ζ, purified isoform [5] it was 1.83%; with PKC-ζ, purified isoform [6], 1.54%.

B11: PRE 13 (peptide)
peptide: Ac-RDAQNLI-NH2
Turning to B11, the relative binding capacity with PKC-ζ, purified isoform [4] was 0%; with PKC-ζ, purified isoform [5], 0%; with PKC-ζ, purified isoform [6], 4.29%.

B12: PRE 10 (peptide)
peptide: Ac-ISIGILNQADK-NH2
As to B12, the relative binding capacity with PKC-ζ, purified isoform [4] was 0%; with PKC-ζ, purified isoform [5], 0%; in the assay with PKC-ζ, purified isoform [6], 0%.

B13: compound PKI 4 (peptide)
peptide: FRRCFRL
In [7], B13 displayed a % Inhibition of PKC activity at 150 µM of 90%, a % Inhibition of PKC activity at 300 µM of 90% and a % Inhibition of PKC activity at 600 µM of 95%. Also, in [8], the % Inhibition of PKC activity at 150 µM came out at 60%, the % Inhibition of PKC activity at 300 µM was 60% and the % Inhibition of PKC activity at 600 µM was determined as 58%.

B14: PRE 2 (peptide)
peptide: KDAQNLIGISL-NH2
As for B14, the Band Intensity in [11] is 0; in [12], 0.0322; in assay [9] it was 0.403; in assay [14], 0; in assay [10] it was 0.8. Besides, the Inhibition (%) in [11] was determined as 100%; in assay [12], 54.7%; in [9], 65.3%; in assay [14], 100%; in assay [10], 31%. Moreover, the Relative Intensity (%) in assay [11] worked out at 0%; in assay [12] it was 45.3%; in [9], 34.7%; in assay [14], 0%; in assay [10] it was 69%.

B15: Compound TIM 18 (PRE 3 and PKI 4) (peptide)
chain: Ac-FRRCFRLGGGGGGGAKGIQEVKGGDAQNLIGISI-NH2
As for B15, in the assay with PKC-δ, Q05655, the % Inhibition of kinase activity (Kinase-Glo), compound at 5.0 µM came to 56.3% and the % Inhibition of kinase activity (Kinase-Glo), compound at 30.0 µM amounted to 85.1%.

B16: Compound TIM 20 (PRE 1 and PKI 4) (peptide)
chain: Ac-FRRCFRLGGGGGGGRRKKGGKDFVVKR-NH2
For B16, in the assay with PKC-δ, Q05655, the % Inhibition of kinase activity (Kinase-Glo), compound at 5.0 µM was 46% and the % Inhibition of kinase activity (Kinase-Glo), compound at 30.0 µM amounted to 45.4%.
